Test results as given in patent publication US20210060174.

Target: human fibrinogen (UniProt P02671)

Row | Substance | fibrin formation, absorbance at 600 nm | fibrin gel formation by primed hMSCs (confocal microscopy, Alexa-594-tagged fibrinogen)
1 | cationised thrombin | During cationisation, the activity of thrombin was retained up to 120 minutes of cationisation, although the activity was gradually decreased with increased cationisation duration | 
2 | [cThrombin][S] |  | [cThrombin][S] bound to cell membranes was able to cleave fibrinogen to form a fibrin gel
